Target: KERP1 (lysine and glutamic acid rich protein 1), recombinant full-length protein (Entamoeba histolytica (strain HM1:IMSS))
Test: AUC

stoichiometry N: 3
Substance: KERP1 (lysine and glutamic acid rich protein 1), recombinant full-length protein (natural protein)

— publication PMC3558696
